Laboratory results: a protein production outcome set (Wang et al. 2014)

Experiment: label from the status in PepcDB records

| Sequence | protein production |
| --- | --- |
| DKITFKGDGDQSDPDGEPGDVVIVIQQKDHDIFKRDGDDLHMTKKLSLNEALCGYNFLIKHLDGHPLVLSSKQGDVIKPGVIRGVLGKGMPNKKYPELKGNLFVEFEVEFPKEHFLDDEKAYAVLK | not failed |
| MSLVRSKAPLRLGLAGGGSDVSPYSDIYGGLILNATINLYAYCTIEETNSGRIEINAYDAQCCKSYLSMSQLEIDGEASLIKGVYNRIIRDYRLEPKSFKITTYNDAPAGSGLGTSSTMVVCILKAFIEWLSLPLGDYETSRLAYEIERKDLGLSGGKQDQYAAAFGGFNYMEFLQNDLVIVNPLKMKRWIVDELESSMVLYFTGRSRSSAAIINEQKKNTSEGNQTAIEAMHKIKQSAIDTKLALLKGDVGEFARILGEGWENKKKMAGAITNPMIQEAFDVATGAGAMAGKVSGAGGGGFIMFVVEPTRKEEVVRALNNLNGFVMPFQFIDDGAHGWKIYSTDKVQKEGHHHHHH | not failed |
| MTSETNIRTLVVDDSDFFAEMTADTLTQQHDIESVAANSAAEALERLEGGGFDCVVSDYEMPEMDGLELLEAIRETNPSIPFILLTGRGDEETASAAIAAGVADYLLKLEVVEDKQYGRLANRIENVVSQERTRKKFESLVSDSPDGIVHLTTNGTILSVNPSMAGRLGADPDTLVGQQLSAVMDSEAANQRLEAGKSAVENGTATRSEDAVGGRHYHNQYIPVDSHRKSDTFQLVSRDITERVERQRELERQNDRLEEFASVVSHDLRNPLNVAQGAVDLLGEPADSKEAELVAKIDRSLDRMGCIIEDVLTLARQGQTVSDPQETELSTLASTAWTWIEAEQASMSVASSTKLAADSGRAQDLLANLFRNAIEHNDGDVEIEIGLLESNDGFYIADNGEGVEGDAEDVFEMGYSSTKDGTGFGLAIVEQVAEAHGWEVSLTESDSGGARFEVSSVELHD | failed |
| MRHISPEELIALHDANISRYGGLPGMSDPGRAEAIIGRVQARVAYEEITDLFEVSATYLVATARGHIFNDANKRTALNSALLFLRRNGVQVFDSPELADLTVGAATGEISVSSVADTLRRLYGSAELEHHHHHH | not failed |
| MERMMNKRILKGTLTAIAALMSAHAFAGQEVTVYTAFETDLLAKYKSAFEKENPDIEIKWVRDSTGIMTAKLLAEKDNPRAEVVWGLAGSSMALLKDQGVLKPYTPKGANELRANLNDPQAQQAWYGNDAFFNAVCFNEAVAKQLNLPKPQSWEDLTNPVYKGHIAMPNPASSGTGYMQVSAWLQNMGEDKAWDYMQRLDQNIAHYTHSGSKPCVQAGMGEVAIGISMATRGAKLKTQGAPLDVIVPNGIGWESEAVGLVKESDAAKRVVDWSVSKAANELYIESYPIVGHQDVSKQVPNYPNVEKVMAKMDFTQMGVDRARVLQTWSEKFDAKSEPKS | failed |
| MSLITNAKLYPPRHPRAVHLAHHLAAIAPGVLVTAAIAAAAVGLRAIPGMPGISPMLLAILIGIVAHNGIGTPSWAVPGVKFSLRRVLRFAIILLGLQLTTAQLIEVGGEGLAIIAATLLATFCFTVWFGRVLGVDRKLTELIAAGTSICGASAIIATNTVTRADDEDVAYGVACVTVFGSLAMVSYPLLQSVLNLDAHGFGLWTGASIHEIAQAVAVSFQGGQRAGEFGTIAKLSRVMMLAPLVIGLGMLARVRAKHQPAGDHTATPPMPWFVLGFVAMIGVNEFVAIPHEAKSWIVAITAFLLSMALAAMGLETDLRKLAARGLRPALLGLTASLFIAGFSLALIKLTGWHG | failed |
| MRKLDICIKSGLHFRTHRQHPDDDSVKTLTLECVDPQMVPVPRHWGRLAHRLLERAMTQATRPLPPPDGMGPTYRKILWRLIPFLFVCNLFNYLDRVNVGFAKLQMLRDLGMSQTVYGLGAGIFFIGYLACGVPSNLILQRIGARRWVAIMMVSWGLLSTCLLFVRTPAGFYTLRLLTGAAEAGFFPGILLYLTRWFPRDRHGRVTTVFMSAIPISGVLGGPLSGWILGYFSAGQGGLAGWQWMFLLQGLPTVLLGNGVWFLLSDGVQEASWLNPQEKQALARVLADDEAGKPAGASTSLRAVLCNPAVWLLGTVYFCIQSGVYAINFWLPSIIQDSGVTDPVRIGLMSAIPYLAAAVFMVLMGRSADRRGERRWHLVIPLLMGAAGLCIAASVTDNLGLALFGMTLATMGAVSGLPLFWPLTNGFLTAAAAAGGLALINSTGQVAGFVSPYLVGWIKDTTHSTQLALYVLAGAMLLGAALVLRVPACAVNQ | failed |
| MKKFGLGVYLLLLGILGGSLIILGAIVAPIVFKASSVLPELHLTPFESGKLMAQIFVRFNYVLGAIGFVVLLYEIISFIYYKRSLVYLILGVAIGALCLLFVFYYTPYILNAQKAGEAALQSAEFARSHAQSEWLFKELFVLVCALFFWRLLGKNVL | failed |
| MQRNLSHIISQATSAPLLLEPAYARVFFCALGRESGINSLHIPGNNESLDQSDMALVTGDFMATGKPQARFYQVVNGIAVLPVTGTLVHKLGGMRPFSGMTGYDGVTARLQQAVSDPEVKGILLDIDSPGGQAAGAFDCADMIYRMREQKPVWALANETACSAAMLLAAACSHRLVTQTSRMGSIGVVMAHTSYAEKLKQEGIDITLIYSGAHKADLTPSQKLPESVYADYQQRMDEARKMFAEKVARYTGLSVDAVMATEAAVYDGQAIITTGLADGMVNAADAIGVMAEAINSNKTGGTMPELSAADAVTQENQRVMGILGCPEARGHEALAQMLAGQPGMSVAQAKSILAAAAPADTTSTADRILALEEAGGRETLAQTLAAMPEMTVEQARTILAASPIAAATSLHDAVMALDEAKGREELAEKLAVMPGMTTDQARDLLAAAPDKSGNAGLSMNNAFDAFMQSHSPGPISGGKGHSNDTETTLLMSIPGTSAT | failed |
| MIQCILVMLGGGIGAVIRGFVTDVFNQKFNTSLPIPTLLINVVGSFCIGLLMGMCLNINWINPFIIVGILGGLTTFSTLSSELVKLLTTPKQINLFILYSILQYGVSFVACLLGYYLF | failed |
| MKYTVYLFDFDYTLADSSRGIVTCFRSVLERHGYTGITDDMIKRTIGKTLEESFSILTGITDADQLESFRQEYSKEADIYMNANTILFPDTLPTLTHLKKQGIRIGIISTKYRFRILSFLRNHMPDDWFDIIIGGEDVTHHKPDPEGLLLAIDRLKACPEEVLYIGDSTVDAGTAAAAGVSFTGVTSGMTTAQEFQAYPYDRIISTLGQLISVPEDKS | not failed |
| MKLFTTALFAIAFGIVIGLSFPSLWITEIWEPSNPRGAERLPSGIIASESDLYLRRLWGNPDEDLVKQPRYLATFTVGYNQRHNIDACVSKFSENFTIVLFHYDGVTSAWNDEFEWSRNAIHISVKKQTKWWYAKRFLHPDIVARYDYIFIWDEDLGVDHFNAEEYIHIVKKHDLEISQPGLDPETGFNWQITKRREHSEVHKETDEKLDWCSNPPRPPCAAFVEIMAPVFSRDAWRCVWHMIQNDLVHGWGLDFALRRCVEEPAFEKIGIVDSQWIVHQFIPSLGNQGKADNGKAPWQGVRDRCQMEWKMFENRVEAAEKDYFRSLQVESPSNSTTSH | failed |
| MKNDDLLMQIMMLDFAVQDSALFIDTHPCDKEAMNYFNEAATRLKAAKKEYQKQGHALVNREVGAYQNDYLSAPWPWVGDHKCGCTKNVCNTL | failed |
| MTTTGHVHFYIGTYTNPPSTSTSTGIARLSLNTETGELTRLDDVVVQRNPSYLTTTEHGLYTFSEMDRNEGTELAFFRGSESVSLPINGDYPCHLDIKEPLLAVANYGSGNVSVFQLDRDGKPLGLLADLYVDGCGPNLERQTSPHAHQVTFLKHSHQLVVVDLGSDSVLIYDYDAQPPDFSLSQVIHLPAGSGPRHVVFNQQESTAYVVCELSETLIVLVKHQDKWLISNQTELLEGEENQQAAAAIRLSQDETFLYVSCRAQNKISMFDVSGDTPKRRAAIHCEGVFPRDFVLSHDQKWLLVANQHSNNVVSFRRNPQTGEITPTGYDCEIGSPVCIVEQPLLEHHHHHH | failed |
| VAITDNRGVITHVNEKFCDISQYEYYELVGTTHKIINSGFHPRSFFKQMWKTIAQGNIWKGEICNRTKQGKLYWVDTTIVPLKDNDGLLKNYISIRTDITQ | failed |
| MRAKKRKFLQKEELSKLLQSLDMSQIGFGWFVMLAAKTGMRYAEALAITPADFDWTAQTISINKTWDYKYNKGFAKTKTLSSVRTIKIDWQIVGQFKPLIKDFPEDEPIFVEKFGDGTYKRQFNSTINNFLAVKCNETGITQISFHALRHTHASVLLAEGVSIHTISARLGHADVGVTQETYAHVLDELQKKDDQKMLSVLMQIALEHHHHHH | not failed |
| EPAEIKIIREAYKKAFLFVNKGLNTDELGQKEEAKNYYKQGIGHLLRGISISSKESEHTGPGWESARQMQQKMKETLQNVRTRLEILEKGLATSLQNDLQEVP | not failed |
| MLDVRARAALSGPLDRAAAMLDRPAVTPNRLTALGLLTGLASAGSAAAGWWPAAAALWLLSRLADGLDGPLARRRGTANSSGAGGFLDISADFLVYGAFVVGVAVGVGGPALPFLLVLLTYYVNGTAFLAFSSIAERTGRRGDGRLSGGRSLNFLGGLAEGGETIAVHTLWCLLPGFAHTIAWVWAAVVAVTAAHRVVTGYRQLR | failed |
| MHTNWQVCSLVVQAKSERISDISTQLNAFPGCEVAVSDAPSGQLIVVVEAEDSETLIQTIESVRNVEGVLAVSLVYHQQEEQGEETP | not failed |
| MHRSTFIRTSGTSSRTLTARYRSQYTGLLVARVLFSTSTTRAQGGNPRSPLQIFRDTFKKEWEKSQELQENIKTLQDASGKLGESEAYKKAREAYLKAQRGSTIVGKTLKKTGETMEHIATKAWESELGKNTRKAAAATAKKLDESFEPVRQTKIYKEVSEVIDDGESSRYGGFITKEQRRLKRERDLASGKRHRAVKSNEDAGTAVVATNIESKESFGKKVEDFKEKTVVGRSIQSLKNKLWDESENPLIVVMRKITNKVGGFFAETESSRVYSQFKLMDPTFSNESFTRHLREYIVPEILEAYVKGDVKVLKKWFSEAPFNVYAAQQKIFKEQDVYADGRILDIRGVEIVSAKLLAPQDIPVLVVGCRAQEINLYRKKKTGEIAAGDEANILMSSYAMVFTRDPEQIDDDETEGWKILEFVRGGSRQFT | failed |
| MIVPYSVEDILKDGCFLERAEIDRLLDRLRTKKNLILQGPPGTGKTWLAKRLAFALMGQKDDSKVRAVQFHPNLSYEDFVRGWRPTGEGKLSLADGVFMEAIKAASKDPSSKFVVVIEEINRGNPAQIFGELLTLLEAGKRTPNEALELCYPDADGKRRPVHIPENLYVVGTMNIADRSLALVDLALRRRFAFVGLEPRLGQVWRDWVVKECAVDPLEHHHHHH | failed |
| MDTEADLFYRQLPKVELHAHLNGSVSFETMEKLIKRKPHLNIEHSMTAIRRGQRRTLDECFQVFKVIHQLVDSEEDILMVAKSVIQEFAADGVKYLELRSTPREVTETGLSKQRYIETVLEAIRQCKQEGVDIDVRFLVAVDRRHGPEVAMQTVKLAEDFLLSSDGTVVGLDLSGDPTVGHGKDLLAALQKAKNCGLKLALHLSEVPSQIDETELLLNLPPDRIGHGTFLHPDVGGSDSLVDKVCKQNIPIEICLTSNVKGQTVPSYDKHHFKYWYNRGHPCVLCTDDKGVFCTDLSQEYQLAASTFGLTKEAVWILSQQAIGYTFAPEPIKQRLEKTWAELKQQILQ | failed |
| MFELWYIHISLAIVSAIFSILIFLEFKSLRKEFHGKLSGVLLLISVLLLFESVVNAVAFSMWSYGHDPVYVYPSMAIAIVSTSVIILFYYYVAKV | failed |
| RAKLMEERETSLKDSVEVAFDAVRLIANNPNLSEAEAKQQVKAVLTNIRYGSDGYFFAYDAQGTNLVHPIQPELVGQNLWQLQDERGDFLIQ | failed |
| MTRRGAQKASPSRAPGETALSTLYVTHPSAVEHVVPTGHPERPARMQAVERALEDERFAALVRCHAPRAEASVAELVHPASYVETIVAASPDEGFFQIDGDTLMSPGSLNTCLHAIGGSNHAVDAVMKGECANAFVAMRPPGHHAERDRAMGFCLFNHAAIAVRHAQKAFGATRVALVDFDVHHGNGSQDIFWADKTVMYASTHQMPLFPGSGATGERGDHDTIVNAPLKAFDGSELFREAFEARILPRLDAFAPDLIVISAGFDAHKLDPLANIQLDEADFGWATRRLMEVADRHAGGRVVSILEGGYSLDGLARSVAAHMDALMGR | failed |
